# Measurements from PMC2396876 (The EMBO Journal, 2008).
# Values joined by “and” are separate entries in the source; they are usually repeats but may differ in a detail not shown here. Identical values can stand only once.
# Columns and labels:
# [1] = target: UspA1^(527–665) A588Q (Moraxella catarrhalis (strain MX2)); experiment: western blot of oligomers
# [2] = target: UspA1^(527–665), recombinant fragment of the Moraxella catarrhalis MX2 adhesin UspA1 (Moraxella catarrhalis (strain MX2)); experiment: crystal structure
# [3] = target: UspA1^(527–665), recombinant fragment of the Moraxella catarrhalis MX2 adhesin UspA1 (Moraxella catarrhalis (strain MX2)); experiment: AUC
# [4] = target: UspA1^(527–665) L583A (Moraxella catarrhalis (strain MX2)); experiment: western blot of oligomers
# [5] = target: N‐CEACAM1, the N‐terminal domain of human carcinoembryonic antigen‐related cell adhesion molecule 1 (human); experiment: AUC
# [6] = target: UspA1^(527–665), recombinant fragment of the Moraxella catarrhalis MX2 adhesin UspA1 (Moraxella catarrhalis (strain MX2)); experiment: ITC
# [7] = target: UspA1^(527–665) A568Q (Moraxella catarrhalis (strain MX2)); experiment: western blot of oligomers
# [8] = target: UspA1^(527–665) M586A (Moraxella catarrhalis (strain MX2)); experiment: western blot of oligomers
# [9] = target: UspA1^(527–665) M586A (Moraxella catarrhalis (strain MX2)); experiment: far-Western, overlay or dot blot
# [10] = target: UspA1^(527–665) M586A/A588Q (Moraxella catarrhalis (strain MX2)) (UniProt Q9XD56); experiment: far-Western, overlay or dot blot
# [11] = target: UspA1^(527–665) A590Q (Moraxella catarrhalis (strain MX2)); experiment: western blot of oligomers
# [12] = target: the molecule itself; experiment: western blot of oligomers
molecule,measurement,setting,value
UspA1^(527–665) A588Q (domain or fragment),stoichiometry N (chains in the oligomer),[1],3
"UspA1^(527–665), recombinant fragment of the Moraxella catarrhalis MX2 adhesin UspA1 (domain or fragment)",stoichiometry N (chains in the oligomer),[2],3
same,stoichiometry N (chains in the oligomer),[3],3
UspA1^(527–665) L583A (domain or fragment),stoichiometry N (chains in the oligomer),[4],3
"N‐CEACAM1, the N‐terminal domain of human carcinoembryonic antigen‐related cell adhesion molecule 1 (domain or fragment)",stoichiometry N (chains in the oligomer),[5],2
same,stoichiometry N (N‐CEACAM1 per UspA1^(527–665) trimer),[3],2
same,Kd,[6],35 nM
same,stoichiometry N (N‐CEACAM1 per UspA1^(527–665) trimer),[6],2.1 and 1.9
UspA1^(527–665) A568Q (domain or fragment),stoichiometry N (chains in the oligomer),[7],3
UspA1^(527–665) M586A (domain or fragment),stoichiometry N (chains in the oligomer),[8],3
soluble CEACAM1‐Fc receptor (from UniProt P13688 35-428) (Fc fusion),"decrease in CEACAM1 binding (densitometry, against native UspA1^(527–665))",[9],14.8%
same,"decrease in CEACAM1 binding (densitometry, against native UspA1^(527–665))",[10],90.4%
UspA1^(527–665) A590Q (domain or fragment),stoichiometry N (chains in the oligomer),[11],3
"UspA1^(527–665) M586A/A588Q (domain or fragment, Moraxella catarrhalis (strain MX2), UniProt Q9XD56 527-665, looked up) ASSANTDRIATAELGIAENKKDAQIAKAQANENKDGIAKNQADIQLHDKKITNLGILHSAVQRAVGNNTQGVATNKADIAKNQADIANNIKNIYELAQQQDQHSSDIKTLAKVSAANTDRIAKNKAEADASFETLTKNQ",stoichiometry N,[12],3 chains in the oligomer
